Legend:
HeLa Kyoto [1] = test: melting temperature (median over replicates), in situ; higher = more thermally stable
HeLa Kyoto [2] = test: solubility in G1/S (NP-40 vs SDS abundance) (log2 ratio); higher = more soluble; conditions: cell cycle stage: G1/S
HeLa Kyoto [3] = test: solubility change mitosis vs G1/S (difference of NP-40 vs SDS log2 ratios) (log2 ratio difference); higher = more soluble in mitosis
HeLa Kyoto [4] = test: thermal stability score vs G1/S (z-score of summed log2 fold changes over temperatures); higher = more thermally stable than in G1/S
[5] = cell cycle stage: early G1 (4.5 h after nocodazole release)
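For melting temperature (median over replicates), in situ in this document: HeLa Kyoto cells synchronized by double thymidine or nocodazole block, proteins quantified by TMT10plex mass spectrometry, three independent biological replicates.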
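For solubility change mitosis vs G1/S (difference of NP-40 vs SDS log2 ratios) in this document: synchronized HeLa Kyoto cells (double thymidine block for G1/S, nocodazole release for mitosis), protein amounts in NP-40 versus SDS lysates quantified by mass spectrometry, three biological replicates.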
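For solubility in G1/S (NP-40 vs SDS abundance) in this document: HeLa Kyoto cells arrested at G1/S by double thymidine block, proteins quantified by TMT10plex mass spectrometry in mild NP-40 versus SDS extracts, three biological replicates.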
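For thermal stability score vs G1/S (z-score of summed log2 fold changes over temperatures) in this document: synchronized HeLa Kyoto cells, proteins quantified by TMT10plex mass spectrometry, three biological replicates, mitosis taken 0.5 h after nocodazole release, G1/S directly after double thymidine block.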

Substance	melting temperature (HeLa Kyoto [1]; cell cycle stage: G1/S) [°C]	melting temperature (HeLa Kyoto [1]; cell cycle stage: mitosis) [°C]	solubility in G1/S (log2) (HeLa Kyoto [2])	solubility change mitosis (log2) (HeLa Kyoto [3])	thermal stability score (HeLa Kyoto [4]; [5])	thermal stability score (HeLa Kyoto [4]; cell cycle stage: mitosis)
MLGFITRPPHRFLSLLCPGLRIPQLSVLCAQPRPRAMAISSSSCELPLVAVCQVTSTPDKQQNFKTCAELVREAARLGACLAFLPEAFDFIARDPAETLHLSEPLGGKLLEEYTQLARECGLWLSLGGFHERGQDWEQTQKIYNCHVLLNSKGAVVATYRKTHLCDVEIPGQGPMCESNSTMPGPSLESPVSTPAGKIGLAVCYDMRFPELSLALAQAGAEILTYPSAFGSITGPAHWEVLLRARAIETQCYVVAAAQCGRHHEKRASYGHSMVVDPWGTVVARCSEGPGLCLARIDLNYLRQLRRHLPVFQHRRPDLYGNLGHPLS [NIT1]	54.7	55.1	0.248	-0.133	-1.82	-2.71
MATHGQTCARPMCIPPSYADLGKAARDIFNKGFGFGLVKLDVKTKSCSGVEFSTSGSSNTDTGKVTGTLETKYKWCEYGLTFTEKWNTDNTLGTEIAIEDQICQGLKLTFDTTFSPNTGKKSGKIKSSYKRECINLGCDVDFDFAGPAIHGSAVFGYEGWLAGYQMTFDSAKSKLTRNNFAVGYRTGDFQLHTNVNDGTEFGGSIYQKVCEDLDTSVNLAWTSGTNCTRFGIAAKYQLDPTASISAKVNNSSLIGVGYTQTLRPGVKLTLSALVDGKSINAGGHKVGLALELEA [VDAC2]	59.9	60.3	-0.125	-0.0952	-1.16	-4.22
MTSRSTARPNGQPQASKICQFKLVLLGESAVGKSSLVLRFVKGQFHEYQESTIGAAFLTQSVCLDDTTVKFEIWDTAGQERYHSLAPMYYRGAQAAIVVYDITNQETFARAKTWVKELQRQASPSIVIALAGNKADLANKRMVEYEEAQAYADDNSLLFMETSAKTAMNVNDLFLAIAKKLPKSEPQNLGGAAGRSRGVDLHEQSQQNKSQCCSN [RAB5B]	57.4	58.2	0.23	-0.207	-0.307	-2.64
MAAPLIPLSQQIPTGNSLYESYYKQVDPAYTGRVGASEAALFLKKSGLSDIILGKIWDLADPEGKGFLDKQGFYVALRLVACAQSGHEVTLSNLNLSMPPPKFHDTSSPLMVTPPSAEAHWAVRVEEKAKFDGIFESLLPINGLLSGDKVKPVLMNSKLPLDVLGRVWDLSDIDKDGHLDRDEFAVAMHLVYRALEKEPVPSALPPSLIPPSKRKKTVFPGAVPVLPASPPPKDSLRSTPSHGSVSSLNSTGSLSPKHSLKQTQPTVNWVVPVADKMRFDEIFLKTDLDLDGYVSGQEVKEIFMHSGLTQNLLAHIWALADTRQTGKLSKDQFALAMYFIQQKVSKGIDPPQVLSPDMVPPSERGTPGPDSSGSLGSGEFTGVKELDDISQEIAQLQREKYSLEQDIREKEEAIRQKTSEVQELQNDLDRETSSLQELEAQKQDAQDRLDEMDQQKAKLRDMLSDVRQKCQDETQMISSLKTQIQSQESDLKSQEDDLNRAKSELNRLQQEETQLEQSIQAGRVQLETIIKSLKSTQDEINQARSKLSQLHESRQEAHRSLEQYDQVLDGAHGASLTDLANLSEGVSLAERGSFGAMDDPFKNKALLFSNNTQELHPDPFQTEDPFKSDPFKGADPFKGDPFQNDPFAEQQTTSTDPFGGDPFKESDPFRGSATDDFFKKQTKNDPFTSDPFTKNPSLPSKLDPFESSDPFSSSSVSSKGSDPFGTLDPFGSGSFNSAEGFADFSQMSKPPPSGPFTSSLGGAGFSDDPFKSKQDTPALPPKKPAPPRPKPPSGKSTPVSQLGSADFPEAPDPFQPLGADSGDPFQSKKGFGDPFSGKDPFVPSSAAKPSKASASGFADFTSVS [EPS15L1]	49.6	51.2	0.43	-0.0276	0.244	1.69
MDTESTYSGYSYYSSHSKKSHRQGERTRERHKSPRNKDGRGSEKSVTIQPPTGEPLLGNDSTRTEEVQDDNWGETTTAITGTSEHSISQEDIARISKDMEDSVGLDCKRYLGLTVASFLGLLVFLTPIAFILLPPILWRDELEPCGTICEGLFISMAFKLLILLIGTWALFFRKRRADMPRVFVFRALLLVLIFLFVVSYWLFYGVRILDSRDRNYQGIVQYAVSLVDALLFIHYLAIVLLELRQLQPMFTLQVVRSTDGESRFYSLGHLSIQRAALVVLENYYKDFTIYNPNLLTASKFRAAKHMAGLKVYNVDGPSNNATGQSRAMIAAAARRRDSSHNELYYEEAEHERRVKKRKARLVVAVEEAFIHIQRLQAEEQQKAPGEVMDPREAAQAIFPSMARALQKYLRITRQQNYHSMESILQHLAFCITNGMTPKAFLERYLSAGPTLQYDKDRWLSTQWRLVSDEAVTNGLRDGIVFVLKCLDFSLVVNVKKIPFIILSEEFIDPKSHKFVLRLQSETSV [VANGL1]	56	54.7	-0.322	0.00763	-1.85	-3.36
ATP1B3	55.5	56.1	0.832	0.0393	-1.58	-2.77
MERAAPSRRVPLPLLLLGGLALLAAGVDADVLLEACCADGHRMATHQKDCSLPYATESKECRMVQEQCCHSQLEELHCATGISLANEQDRCATPHGDNASLEATFVKRCCHCCLLGRAAQAQGQSCEYSLMVGYQCGQVFQACCVKSQETGDLDVGGLQETDKIIEVEEEQEDPYLNDRCRGGGPCKQQCRDTGDEVVCSCFVGYQLLSDGVSCEDVNECITGSHSCRLGESCINTVGSFRCQRDSSCGTGYELTEDNSCKDIDECESGIHNCLPDFICQNTLGSFRCRPKLQCKSGFIQDALGNCIDINECLSISAPCPIGHTCINTEGSYTCQKNVPNCGRGYHLNEEGTRCVDVDECAPPAEPCGKGHRCVNSPGSFRCECKTGYYFDGISRMCVDVNECQRYPGRLCGHKCENTLGSYLCSCSVGFRLSVDGRSCEDINECSSSPCSQECANVYGSYQCYCRRGYQLSDVDGVTCEDIDECALPTGGHICSYRCINIPGSFQCSCPSSGYRLAPNGRNCQDIDECVTGIHNCSINETCFNIQGGFRCLAFECPENYRRSAATLQQEKTDTVRCIKSCRPNDVTCVFDPVHTISHTVISLPTFREFTRPEEIIFLRAITPPHPASQANIIFDITEGNLRDSFDIIKRYMDGMTVGVVRQVRPIVGPFHAVLKLEMNYVVGGVVSHRNVVNVHIFVSEYWF [FBLN1]	54	55.4	-0.102	-0.045	1.49	0.0681
MTELRQRVAHEPVAPPEDKESESEAKVDGETASDSESRAESAPLPVSADDTPEVLNRALSNLSSRWKNWWVRGILTLAMIAFFFIIIYLGPMVLMIIVMCVQIKCFHEIITIGYNVYHSYDLPWFRTLSWYFLLCVNYFFYGETVTDYFFTLVQREEPLRILSKYHRFISFTLYLIGFCMFVLSLVKKHYRLQFYMFGWTHVTLLIVVTQSHLVIHNLFEGMIWFIVPISCVICNDIMAYMFGFFFGRTPLIKLSPKKTWEGFIGGFFATVVFGLLLSYVMSGYRCFVCPVEYNNDTNSFTVDCEPSDLFRLQEYNIPGVIQSVIGWKTVRMYPFQIHSIALSTFASLIGPFGGFFASGFKRAFKIKDFANTIPGHGGIMDRFDCQYLMATFVNVYIASFIRGPNPSKLIQQFLTLRPDQQLHIFNTLRSHLIDKGMLTSTTEDE [CDS2]	57.3	56	-0.102	-0.168	-3.65	-6.01
MSSPASTPSRRGSRRGRATPAQTPRSEDARSSPSQRRRGEDSTSTGELQPMPTSPGVDLQSPAAQDVLFSSPPQMHSSAIPLDFDVSSPLTYGTPSSRVEGTPRSGVRGTPVRQRPDLGSAQKGLQVDLQSDGAAAEDIVASEQSLGQKLVIWGTDVNVAACKENFQRFLQRFIDPLAKEEENVGIDITEPLYMQRLGEINVIGEPFLNVNCEHIKSFDKNLYRQLISYPQEVIPTFDMAVNEIFFDRYPDSILEHQIQVRPFNALKTKNMRNLNPEDIDQLITISGMVIRTSQLIPEMQEAFFQCQVCAHTTRVEMDRGRIAEPSVCGRCHTTHSMALIHNRSLFSDKQMIKLQESPEDMPAGQTPHTVILFAHNDLVDKVQPGDRVNVTGIYRAVPIRVNPRVSNVKSVYKTHIDVIHYRKTDAKRLHGLDEEAEQKLFSEKRVELLKELSRKPDIYERLASALAPSIYEHEDIKKGILLQLFGGTRKDFSHTGRGKFRAEINILLCGDPGTSKSQLLQYVYNLVPRGQYTSGKGSSAVGLTAYVMKDPETRQLVLQTGALVLSDNGICCIDEFDKMNESTRSVLHEVMEQQTLSIAKAGIICQLNARTSVLAAANPIESQWNPKKTTIENIQLPHTLLSRFDLIFLLLDPQDEAYDRRLAHHLVALYYQSEEQAEEELLDMAVLKDYIAYAHSTIMPRLSEEASQALIEAYVDMRKIGSSRGMVSAYPRQLESLIRLAEAHAKVRLSNKVEAIDVEEAKRLHREALKQSATDPRTGIVDISILTTGMSATSRKRKEELAEALKKLILSKGKTPALKYQQLFEDIRGQSDIAITKDMFEEALRALADDDFLTVTGKTVRLL [MCM4]	50.6	50.4	0.157	-0.0425	0.944	0.88
